Test results as given in US20150354006.

Test system: recombinant nucleosome

Chain of NSD2 E1099K mutant protein, purified (Example 7) (chain, as listed by the source E1099K): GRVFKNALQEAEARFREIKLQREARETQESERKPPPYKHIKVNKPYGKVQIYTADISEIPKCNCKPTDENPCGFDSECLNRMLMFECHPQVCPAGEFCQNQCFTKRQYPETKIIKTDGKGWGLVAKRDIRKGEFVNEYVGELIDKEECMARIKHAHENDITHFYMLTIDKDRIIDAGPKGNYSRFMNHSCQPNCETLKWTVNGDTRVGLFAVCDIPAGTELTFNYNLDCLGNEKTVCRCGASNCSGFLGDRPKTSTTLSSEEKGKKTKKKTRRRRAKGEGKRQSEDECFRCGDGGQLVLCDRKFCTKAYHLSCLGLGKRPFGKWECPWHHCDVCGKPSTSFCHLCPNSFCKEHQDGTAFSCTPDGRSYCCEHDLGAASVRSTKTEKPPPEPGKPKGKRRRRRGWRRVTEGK
Chain of NSD2 E1087Q mutation (Example 7) (chain, as listed by the source E1087Q): as the sequence (chain, as listed by the source E1099K) above, with E133Q, K145E counted along it

| Substance | SAH production by LC/MS/MS in an enzymatic reaction with SAM and nucleosome (FIG. 9) |
| --- | --- |
| NSD2 E1087Q mutation (Example 7) | the NSD2 E1087Q mutation has less N-methyltransferase activity in each case |
| NSD2 E1099K mutant protein, purified (Example 7) | the NSD2 E1099K protein gains extra activity on recombinant nucleosome compared to NSD2 WT |
